Experimental findings from publication PMC10261013, “Characterization of p38α autophosphorylation inhibitors that target the non-canonical activation pathway” (Nature Communications, 2023) are described below.

Ends that are not written are not given here. * marks the point of attachment. FITC = O=C1OC2(c3ccc(O)cc3Oc3cc(O)ccc32)c2ccc(NC(=S)*)cc21

In assay [1] the target is T1, GST-p38α (human p38α with an N-terminal GST-tag, non-phosphorylated) (human, UniProt Q16539 1-360).
T1 construct: p38α (MAPK14), human; non-phosphorylated; The results text says 'p38α'; the methods and the legend say GST-p38α; also called MAPK14; non-phosphorylated p38α; source: E. coli BL21 DE3 or BL21-DE3-pLysS, purified (Glutathione-Sepharose, dialysis); not shown: GST, N-terminal, kept
T1 sequence (Q16539 whole entry): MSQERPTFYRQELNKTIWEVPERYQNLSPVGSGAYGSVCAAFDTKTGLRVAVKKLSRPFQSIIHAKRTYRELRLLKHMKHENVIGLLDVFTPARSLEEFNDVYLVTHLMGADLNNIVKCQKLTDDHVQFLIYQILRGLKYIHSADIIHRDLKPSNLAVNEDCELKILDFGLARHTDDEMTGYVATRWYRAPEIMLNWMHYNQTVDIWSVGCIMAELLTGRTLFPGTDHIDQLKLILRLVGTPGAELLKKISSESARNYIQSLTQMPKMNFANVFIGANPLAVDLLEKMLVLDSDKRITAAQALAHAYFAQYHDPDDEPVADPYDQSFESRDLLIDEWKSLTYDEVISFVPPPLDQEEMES
Briefly: thermal shift assay; GST-p38α 1.5 μM with TAB1(386-414) peptide 15 μM, alone or with NC-37 / NC-38; 20 mM TRIS pH 7.5, 100 mM NaCl, 2 mM MgCl2, 2 mM DTT; SYPRO Orange, 25 to 95 °C. The conditions noted are these: both partners purified.

In assay [2] the target is T1, GST-p38α (human p38α with an N-terminal …). Kind of assay: fluorescence polarisation; direct binding: FITC-TAB1(386-414) 10 nM with non-phosphorylated GST-p38α 0.17–22 μM, 1 h at RT; 20 mM Tris pH 7.5, 100 mM NaCl, 1 mM DTT, 10 mM MgCl2. The following applies: both partners purified. On the technique in general: In fluorescence polarisation assays a small probe gives low polarisation when free and higher when bound to something large.

B1: TAB1(386-414) peptide (peptide)
peptide: RVYPVSVPYSSAQSTSKTSVTLSLVMPSQ
notes: also called TAB1 peptide; source: synthetic peptide, bought: GenScript
Turning to B1, the binding result in assay [1] is “binds”.

B2: FITC-TAB1(386-414) peptide (peptide)
peptide: {FITC}-RVYPVSVPYSSAQSTSKTSVTLSLVMPSQ
notes: source: synthetic peptide, bought: ChinaPeptides
For the molecule B2, the Kd (as a rule, a measure of binding affinity in units of concentration) in assay [2] was determined as 989 ± 160 nM.
